Assays:
Assay in all cases: pull-down binding Z-score (relative to library population); higher = stronger binding
[1] = system: G-clamp-N3 (biotin conjugate); conditions: RNA library: Library-1 (pre-miRNA loops + repeats)
Summary of the method: (§1)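 Biotin-conjugated small molecule (100 pmol) on streptavidin beads was incubated with 1 μg of heat-folded Cy5- or Cy3-end-labelled RNA library in phosphate/NaCl/KCl buffer at 25 °C for 60 min. Following three washes, RNA was eluted with hot SDS and hybridised at 55.5 °C for 20 h to a DNA barcode microarray. The binding value is a Z-score computed from the library mean and standard deviation, after subtraction of beads without compound and averaging of barcoded replicate probes with the highest and lowest excluded.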

[2] = system: TO-3-N3 (biotin conjugate); conditions: RNA library: Library-2
Summary of the method: as §1

[3] = system: TO-3-N3-2 (biotin conjugate); conditions: RNA library: Library-2
Summary of the method: as §1

[4] = system: TO-N3 (biotin conjugate); conditions: RNA library: Library-2
Summary of the method: as §1

[5] = system: TO-N3-2 (biotin conjugate); conditions: RNA library: Library-2
Summary of the method: as §1

Sequence	pull-down binding Z-score [1]	pull-down binding Z-score [2]	pull-down binding Z-score [3]	pull-down binding Z-score [4]	pull-down binding Z-score [5]
UGGAGGCUGACCUCUUACUUUCGGUCGGUCUUCUU [hsa-mir-4258]	-1.13	-0.176	-0.43	-0.486	-0.435
CAGACUCUG [hsa-mir-4326]	1.33	0.067	-0.381	-0.0561	-0.0772
UCCGGCCGGCCAUGCUGGCGGGG [hsa-mir-762]	0.45	-0.72	-0.506	-0.676	0.213
UAAUCACAGGCCACAUUUCUGAAUA [hsa-mir-1295b]	-1.08	-0.745	-0.391	-0.716	-0.437
AAAACUUUCAUCCAAGUCAUU [hsa-mir-378d-2]	-0.902	0.382	-0.238	0.164	-0.609
UUUACAUGCUACAGUCAAGAUGCGAA [hsa-mir-15b]	-0.982	0.288	0.0265	0.275	-0.147
GAGGGGCAUGCACUGUGUUCACCCUG [hsa-mir-134]	-0.276	0.47	-0.0434	0.687	0.807
CCCACGGCCCUUGUCAGUGUG [hsa-mir-3190]	-1.69	0.791	-0.14	0.809	0.517
CUUCGCGCUAGUUUGUUUGUGUUAAG [hsa-mir-6077]	-0.639	-0.0696	0.0164	-0.0943	-0.426
AUUGUUGUGGGGUAGGGAUAUUAGGCCCCAAUUAGAAGAUAACUAU [hsa-mir-98]	1.37	1.03	1.1	1.07	0.971
UUUUGCUGUUACUUUUAAUGGCAAAA [hsa-mir-548az]	-0.982	-0.418	-0.34	-0.752	-1.3
AAGCUGUGUGUGUCCAGC [hsa-mir-4732]	-0.258	0.132	-0.101	0.33	0.52
GGGCAGGGAGGGCAGGGCAGGCUCUGGGGUGGGGGGUCUGUGAGUCAGCCACGGCUC [hsa-mir-4516]	2.89	6.78	7.72	6.16	4.69
GUGGAGGUAGGCGAGAGUAAUAUAAUUUCUCCAGGAGAACAUCUGAGAGGGGAAGUUGCUUUCCUGCCCUGGCCCUUUCAC [hsa-mir-6076]	-0.319	0.431	0.000368	0.735	1.37
UAGAGUAGGAGAGCCCACUGA [hsa-mir-6846]	0.203	0.712	0.147	1.28	1.21
AGACAGCCUGAGUUGGAGGCUCAUCUUCACUUCUUGCUGUGU [hsa-mir-3168]	-0.917	0.0963	-0.221	0.262	0.168
AGGUGGAAAGGGAGCAGGAGCAUCGUCUUUAAGAGGGUCAGGUACCUUUGCUCUUA [hsa-mir-6083]	0.244	-0.0151	0.394	0.724	1.33
GAUUGCUAAUAGUACCAAUC [hsa-mir-34c]	-0.0934	0.967	-0.216	0.79	-0.636
GGCAGGGGGAGCUGCAGGGCUAUGGGAGGGGCCCCAGCGUCUGA [hsa-mir-1233-2_1233-1]	2.96	3.54	2.98	3.66	3.08
CGGGCCCCUCCCCUCAAUGGGCCCG [hsa-mir-5685]	0.108	-0.255	-0.162	-0.493	-0.886
CGGUCGGAUAAUCACAUGACGAG [hsa-mir-2114]	0.425	-0.513	-0.221	-0.0316	0.592
GGCGCUUCUCCUUCUGAACAGAGCGCU [hsa-mir-1251]	-0.609	-0.462	-0.182	-0.423	-0.171
UAUUCUGAUGUCCAAGUGGAAA [hsa-mir-372]	-0.198	-0.733	-0.345	-0.772	-0.504
GCGGCUGUUAAUGAUUUUAACAGUUGC [hsa-mir-449c]	0.888	-0.84	-0.119	-1.14	-1.2
GUCCUGACUGCGUGCCAGGGGC [hsa-mir-3650]	0.903	-0.235	-0.518	-0.175	0.488

Sequence	pull-down binding Z-score [1]	pull-down binding Z-score [2]	pull-down binding Z-score [3]	pull-down binding Z-score [4]	pull-down binding Z-score [5]
CUGUAUGUCCUAACAGUGCUUGUAG [hsa-mir-4794]	-0.4	-0.28	-0.0698	0.0771	0.46
UAUUGUGUUGAUCAACAAUA [hsa-mir-5590]	-0.46	-0.858	-0.465	-0.668	-0.668
GCAAUCAGGACUGGGUCAUUC [hsa-mir-6873]	-0.628	0.38	0.166	0.572	0.291
CAGCUACACAAGCUG [hsa-mir-631]	1.64	-0.0598	-0.33	-0.53	-0.859
CCCACGUCGCAUGCGCCCCGGGAAAGCGUGGG [hsa-mir-3180-1_3180-3_3180-2]	1.94	0.614	-0.158	0.682	0.515
UUUGCCAUUACUUUCAGUGGCAAA [hsa-mir-548aq]	0.135	-0.975	-0.894	-1.48	-1.11
UUGUGGCAAUACAG [hsa-mir-8068]	0.635	-0.437	-0.166	-0.425	-0.0186
UUUUUCCAUUGUAAGUAAUGGGAAAA [hsa-mir-548f-5]	0.457	-0.644	-0.567	-0.991	-1.67
CUGGGUUCUUAGAGGCCUAAUCCUCUACAAACUCAGUUU [hsa-mir-4305]	-1.01	-0.124	-0.258	0.144	0.546
GUGGAAUGCAAAGUCCCAC [hsa-mir-5698]	-0.39	-0.264	-0.36	-0.332	-0.551
UGUUCAUGUCUCUCUGUGCACAGGGGACGAGAGUCA [hsa-mir-4420]	0.39	-0.612	-0.232	-0.35	0.762
UAGAGGGUAAAAUUAAUAACCUUCUA [hsa-mir-628]	0.0533	0.214	0.114	-0.152	-0.888
GAGCUUCGUGUACAUUAUCUAUUAGAAAAUGAAGUAC [hsa-mir-4724]	-0.219	0.0277	-0.033	0.0579	0.0115
UUUUGCCAUUAAAAGUAAUGACAAAA [hsa-mir-548f-4]	-0.841	-0.924	-0.56	-1.47	-1.66
CUGUGGUGGCUGCUCAUGCACCACGG [hsa-mir-105-1]	1.44	-0.868	-0.574	-1.05	-0.558
ACUUAAGCACCAGGUAAAAUCUGGUGCUUAAGU [hsa-mir-4720]	0.139	-1.09	-0.698	-1.56	-1.69
UUGGGAUCCACCUUUCUCUCGA [hsa-mir-196b]	-0.507	0.578	0.21	0.471	-0.031
GUGUCUGGCCCCAGCAGCCCAGACU [hsa-mir-6751]	-0.568	0.258	-0.171	0.766	1.39
UCAUAAAUAUUUUAAGGAAUGACCCGGCCCUGGGG [hsa-mir-4285]	-0.171	-0.306	0.31	-0.199	0.308
CAGUAAGCCUUGACUUAUGGCUAAAUGCUUC [hsa-mir-4273]	-1.02	-0.111	0.0166	0.0209	0.273
CAUUCACAUAGACUAUAAUUGAAUG [hsa-mir-652]	0.721	-0.751	-0.353	-0.944	-0.703
AGGAGUUCACU [hsa-mir-1183]	-0.952	-0.276	-0.383	-0.253	0.0749
AGGUGCUAGGUCGGCCUCGGC [hsa-mir-5787]	1.28	0.284	0.351	1.01	1.47
UAGUGGAAAGAGCACUG [hsa-mir-378b]	1.15	-0.39	-0.158	-0.347	-0.274
UGAGUGCCGACUGGCGCCUG [hsa-mir-4750]	-0.352	-0.164	-0.448	0.0638	0.446

Sequence	pull-down binding Z-score [1]	pull-down binding Z-score [2]	pull-down binding Z-score [3]	pull-down binding Z-score [4]	pull-down binding Z-score [5]
UGUUAGUGUUCAAGUCUACA [hsa-mir-4802]	0.156	-0.747	-0.398	-0.509	-0.255
ACCAUAUCUAAGCUAAUGUGGUGGU [hsa-mir-876]	0.651	-0.157	0.00992	-0.139	-0.259
AAAAUGUUUGUCAUAAACCGUUUU [hsa-mir-335]	-0.914	-0.185	-0.302	-0.158	-0.934
CCAGUGGUUUUCCUUGACUGUG [hsa-mir-298]	1.54	-0.421	-0.472	-0.416	0.0607
CUCUGGUCUAUAAUGGGUUAAAUAGUAGAG [hsa-mir-609]	0.305	-0.334	0.234	-0.191	0.131
UUUUGCAGUUUUUUUAAGUAAUUGCAAAA [hsa-mir-548f-3]	0.0351	-0.492	-0.385	-0.812	-0.904
AGGUUUGUGUCCAAUACAGUCCACACCU [hsa-mir-3200]	-0.861	-0.745	-0.367	-0.879	-0.572
AGAUAGUGAAGUAGAUUAGCAUCUACU [hsa-mir-18a]	-0.59	-0.484	0.201	-0.387	0.0251
AUAUAAGGGAAGGCAUUAUAG [hsa-mir-3117]	0.00615	0.00808	0.0974	0.0219	-0.234
GGCUCCUGGCGCUGAUGCC [hsa-mir-6886]	-0.347	0.85	0.297	1.15	1.15
GGGGGCAGGCUGCCACCUCCUG [hsa-mir-8089]	-0.161	1.5	0.599	1.89	1.36
GGGCCAUGUCUGUGAGGGCCCA [hsa-mir-4294]	3.2	-0.261	0.0026	0.221	0.936
UGUGCCUUGCCUUUCCUUUGGCACA [hsa-mir-4438]	0.155	-0.0269	-0.183	-0.0545	-0.0304
AUGCUAAGUCCAUGGGCAAACAU [hsa-mir-5704]	-0.176	-0.258	-0.165	-0.088	0.235
AAGUCGAUUUCCAAAAGUGACUU [hsa-mir-3124]	-0.161	-0.856	-0.588	-1.11	-1.11
GGGUGAUACACAAGCCUGACCCUCCC [hsa-mir-6793]	-0.976	0.244	0.55	0.416	0.954
GCCAGAUGCUGAGCGAUGGC [hsa-mir-4730]	0.503	-0.32	-0.12	-0.217	0.603
GCUGCAGAUCUUUGUCUAAGCAGC [hsa-mir-4498]	-0.879	-0.346	-0.207	-0.555	-0.274
AAAUAAGCUCCAUAUCAAUGAGAAUUUCAAUGGGAUUAUGUG [hsa-mir-4791]	-1.06	-0.569	-0.0328	-0.415	0.0926
CUGUCCUGGACUGGGGUCAGACUGUGCCCCGAGGAGAAGCAG [hsa-mir-922]	0.368	-0.2	-0.166	0.794	1.47
CGAGAAGCGCCUGCGUCUCCCAUUUUCG [hsa-mir-3944]	-1	0.199	0.16	0.763	1.37
CGGGAACCUGCCUCCCG [hsa-mir-596]	-0.566	0.264	-0.195	0.0562	-0.232
GACAUCCCUCAUCUGUUUCUCACUGGUGUC [hsa-mir-6830]	-0.521	0.191	0.244	-0.0985	-0.507

From the supplement of paper PMC11865577
